Source: US20240294613A1 (BROAD INSTITUTE, published 2024)

Biological target: SARS-COV-2 spike on authentic SARS-COV-2 virus (SARS-COV-2, UniProt P0DTC2 14-1273)
Experiment: cell-based or functional assay

Binder | LV IC50
BG7-18 (antibody, V domains shown) VH: EVQLMESGGGLIQPGGSLRLSCAASGFIVSSNYMSWVRQAPGKGLEWVSVIYSGGGTDYADSVKGRFTISRDNSKNTLFLQMNSLRAEDTAVYYCARGAAMVKELFDYWGQGTQVTVSS VL: not shown | 0.115 µg/mL
BG7-15 (antibody, V domains shown) VH: QVQLVQSGAEVKKPGASVKVSCKASGYTFTSYAISWVRQAPGQGLEWMGWVSAYNGNTNYAQKLQGRVTMTTDTSTNTAYMELRSLRSDDTAIYYCAIPYSSVTFDCWGQGTLVTVSS VL: EIVLTQSPGTLSLSPGERATLSCRASQSVSGTFLAWYQQKPGQAPRLLISGASSRATGIPDRFSGSGSGTDFTLTISRLEPEDFAVYYCQQYGSSRPTFGQGTKLEIKR | 0.114 µg/mL
